Results: patent publication US20120219551A1

Tests used:
[1] = biological target: FcγRIIIA, soluble monomeric protein (extracellular region joined to the linker-AVITAG sequence) (human) (UniProt P08637); assay: yeast display FACS, biotinylated receptor chased with unlabeled receptor
[2] = biological target: soluble dimeric FcγRIIB-Fc fusion protein (extracellular domain of FcγRIIB fused to hinge-CH2-CH3 of human IgG2) (human) (UniProt P31994); assay: BIAcore: FcγRIIB-Fc fusion at two concentrations over ch4-4-20 captured on BSA-FITC; separate fit, average of the two concentrations (Table 15 prints 0.085)
[3] = biological target: FcγRIIIA on natural killer cells of human donor PBMC (human) (UniProt P08637); assay: cell-based or functional assay
[4] = biological target: soluble monomeric FcγRIIIA (extracellular region of FcγRIIIA joined to the linker-AVITAG sequence) (human) (UniProt P08637); assay: ELISA
[5] = biological target: soluble dimeric FcγRIIB-Fc fusion protein (extracellular domain of FcγRIIB fused to hinge-CH2-CH3 of human IgG2) (human) (UniProt P31994); assay: ELISA
[6] = biological target: soluble monomeric FcγRIIIA (extracellular region of FcγRIIIA joined to the linker-AVITAG sequence) (human) (UniProt P08637); assay: SPR (BIAcore), Ab captured on BSA-FITC, separate fit 200/800 nM
[7] = biological target: soluble dimeric FcγRIIB-Fc fusion protein (extracellular domain of FcγRIIB fused to hinge-CH2-CH3 of human IgG2) (human) (UniProt P31994); assay: as above
[8] = biological target: soluble monomeric FcγRIIIA (extracellular region of FcγRIIIA joined to the linker-AVITAG sequence) (human) (UniProt P08637); assay: BIAcore: FcγRIIIA at 200 nM and 800 nM over ch4-4-20 captured on BSA-FITC; separate fit, average of the two concentrations (Table 14 prints 90)
[9] = biological target: soluble monomeric FcγRIIIA (extracellular region of FcγRIIIA joined to the linker-AVITAG sequence) (human) (UniProt P08637); assay: BIAcore: FcγRIIIA at 200 nM and 800 nM over ch4-4-20 captured on BSA-FITC; separate fit, average of the two concentrations (Table 14 prints 0.075)
[10] = biological target: soluble dimeric FcγRIIB-Fc fusion protein (extracellular domain of FcγRIIB fused to hinge-CH2-CH3 of human IgG2) (human) (UniProt P31994); assay: ELISA of FcγRIIB binding, OD printed beside the sensorgram (Table 15 prints 0.08)

soluble dimeric FcγRIIB-Fc fusion protein (extracellular domain of FcγRIIB fused to hinge-CH2-CH3 of human IgG2) (human), sequence (P31994 43-217): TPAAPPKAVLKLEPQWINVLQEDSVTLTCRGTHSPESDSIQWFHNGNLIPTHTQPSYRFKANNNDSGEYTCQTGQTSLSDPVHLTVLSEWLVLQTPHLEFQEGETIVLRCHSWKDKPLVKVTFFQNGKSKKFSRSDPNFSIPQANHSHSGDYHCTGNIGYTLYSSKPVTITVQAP
soluble monomeric FcγRIIIA (extracellular region of FcγRIIIA joined to the linker-AVITAG sequence) (human), sequence (P08637 17-208): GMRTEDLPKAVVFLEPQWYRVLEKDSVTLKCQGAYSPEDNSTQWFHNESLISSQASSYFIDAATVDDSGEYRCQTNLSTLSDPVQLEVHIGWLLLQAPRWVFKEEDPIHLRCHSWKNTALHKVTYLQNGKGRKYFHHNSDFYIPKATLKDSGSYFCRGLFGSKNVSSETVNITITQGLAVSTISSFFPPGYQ
FcγRIIIA on natural killer cells of human donor PBMC (human), sequence (P08637 17-254): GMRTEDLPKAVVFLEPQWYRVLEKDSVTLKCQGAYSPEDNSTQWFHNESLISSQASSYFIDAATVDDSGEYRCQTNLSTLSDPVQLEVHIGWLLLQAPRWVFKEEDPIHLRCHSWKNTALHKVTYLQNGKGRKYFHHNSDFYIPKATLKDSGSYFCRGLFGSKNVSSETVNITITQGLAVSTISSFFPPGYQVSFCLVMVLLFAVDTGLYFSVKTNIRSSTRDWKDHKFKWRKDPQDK
FcγRIIIA, soluble monomeric protein (extracellular region joined to the linker-AVITAG sequence) (human), sequence (P08637 17-208 F176V limits assumed, form in doubt): as the sequence (P08637 17-208) above, with F160V counted along it

loss of cell staining after 1 minute with unlabeled FcγRIIIA [1]	koff [2]	ELISA, OD [4]	ELISA, OD [5]	Kd [6]	Kd [7]	koff [7]	Kd [8]	koff [9]	ELISA, OD [10]	koff [6]	kon [6]	Substance	ADCC, % [3]
50%												Fc variant P396L (from UniProt P01857 1-330) (antibody)	
	0.0847 s⁻¹	0.5 OD	0.4 OD	319 nM	61.4 nM	0.085 s⁻¹						ch4-4-20 wild type (chimeric anti-fluorescein antibody, IgG1)	17.5%
		0.37 OD	0.08 OD	90 nM	82.3 nM	0.1 s⁻¹	91.8 nM	0.073 s⁻¹	0.1 OD	0.075 s⁻¹	822000 M⁻¹ s⁻¹	ch4-4-20 Mut11 (R255L, F243L) (antibody)	32%
